US20260224446A1, “BIFUNCTIONAL PEPTIDES USEFUL FOR COLLAGEN INTRAFIBRILLAR MINERALIZATION” (University of Kansas, priority 2023, published 2026)
Values joined by “and” are separate entries in the source; they are usually repeats but may differ in a detail not shown here. Identical values can stand only once. No end group written: not given here.

Experiments:
[1] = target: T1, Type 1 rat tail collagen (Rattus norvegicus, UniProt P02454+P02466); test: Collagen fibril self-assembly with incorporated peptide, AFM topography fibril widths; settings: peptide co-assembled with collagen (50 nanomoles in 1 mL of 3 mg/mL), drop-cast on mica
T1 construct: Collagen Type 1 solution from rat tail (3 mg/mL, C3867, 95%) was purchased from Sigma-Aldrich; purchased Sigma-Aldrich C3867; host or cells: rat tail (tissue-derived)
Description: (§1) Grade V1 round mica, 0.21 mm thick and 12 mm in diameter, was used as the substrate surface and mounted onto a 12 mm atomic force microscopy specimen disc using STKYDOT adhesive. In 1 mL of 3 mg/mL Type 1 rat tail collagen suspension, 50 nanomoles of peptide were added. The ratio of mass collagen to mass peptide ranged from 100 wt collagen: 1 wt peptide for single domains to 100 wt collagen: 3 wt peptide for the chimeric peptide. Once peptide was dissolved and gently mixed in the collagen suspension, 150 μL was drop-cast onto the substrate surface and left to self-assemble at 4° C. for 16 h.
(§2) A Bruker Multimode 8 HR scanning probe microscope (Bruker Nano Inc., Camarillo, CA, USA) was operated in peak force tapping mode with the capability of Quantitative Nanomechanics (PeakForce-QNM) in air mode conditions (24±2° C., 40%±5% RH). This advanced testing mode was used to examine the topographical and nanomechanical property changes of the collagen-peptide samples both before and after mineralization. Tapping mode etched silicon probes, type RTESPA 525-30 (Bruker Nano Inc., Camarillo, CA, USA) with a resonant frequency of about 518 kHz, were used to acquire images (1 μm×3 μm and 5 μm×5 μm) at scan rate of 0.5 Hz with 512 pixel/line resolution. The images of the samples were recorded using NanoScope 8.15 software and analyzed using NanoScope Analysis 2.0 software (Bruker Nano Inc., Camarillo, CA, USA).
Building upon the conformational flexibility of the peptide, the CBP-HABP1 peptide was then studied for the assembly properties on the collagen fibrils on mica substrate using AFM topography image analysis. The images were acquired in tapping mode. Non-fibril features, indicated as intensity saturated regions on the surface, are acetic acid salt crystals from the evaporation of the solution in which the collagen was suspended. These features were excluded from image to prevent signal shadowing of the surface fibril assembly. […] Collagen+ (CBP-HABP1) fibrils were measured to be smaller than collagen-alone fibrils, resulting in a statistically significant difference. […]

[2] = target: T1, Type 1 rat tail collagen; test: SEM/EDS of Ca-P deposits on peptide-incorporated collagen after ALP-driven mineralization; format: biochemical; settings: for average Ca—P ratio: EDS, initial mineral on peptide-incorporated collagen after 20 min ALP-driven mineralization; for mineral formation morphology on SEM images: peptide-incorporated collagen after ALP-driven mineralization
Description: as §1
(§3) ALP-driven mineralization was executed following the protocol discussed in Gungormus et al. (2008). The mineralization buffer prepared was composed of 24.4 Ca^2+ mM and 14.4 mM B-glycerophosphate made in 25 mM Tris-HCl buffer at pH 7.4, and 200 μL/well was added to a 24-well plate. Collagen-peptide samples were placed gently within the well to lay flat at the bottom. The mineralization reaction was initiated by adding FastAP (thermosensitive alkaline phosphatase), 1.4×10^−6 g/mL, and left to incubate at 37° C. for 20 min. The samples were then removed from the wells, gently rinsed in sterile-filtered water, and left to air dry overnight. Throughout this process the samples were handled in a horizontally flat manner to prevent disturbing the peptide-functionalized collagen layer on the surface of the substrate.
In order to examine initial intrafibrillar mineral formation and morphology and determine Ca/P ratios precipitated on the peptide-functionalized collagen surface, a Cold Field Emission Scanning […] Microscope (SEM, S-4700 model, Hitachi High-Tech America, Schaumburg, IL, USA) equipped with a silicon drift energy-dispersive detector (EDS, X-max, Oxford Instruments, Concord, MA, USA) was used via the Microscopy and Analytical Imaging Research Resource Core Laboratory (RRID:SCR_021801). Collagen-peptide samples were sputter-coated with 3 nm gold using a Quorum sputter coating system (Q150, Quorum, Laughton, East Sussex, UK). SEM imaging was completed at an acceleration voltage of 10 kV at ultra-high resolution operating mode and EDS measurements were made at 10 kV under normal operating mode to preserve the integrity of the collagen-peptide layer and prevent burning during signal capture. EDS analysis was performed through AZtec software (X-MaxN, Oxford Instruments, Concord, MA, USA).
The composition and morphology of the Ca—P deposits formed on collagen samples were examined using scanning electron microscopy (SEM) with energy dispersive X-ray analysis (EDS). […] The EDS results validated the finding of Ca—P mineral isomorphs on the peptide-incorporated collagen platforms. The calcium/phosphate ratios were calculated to examine compositional differences. […] Whereas collagen+ (CBP) and collagen+ (CBP-HABP1) had comparatively lower average Ca—P ratios at 1.30 and 1.25, respectively. These values are similar to the molar ratio of octacalcium phosphate, which is around 1.33, and amorphous calcium phosphate (ACP), which is roughly 1.50 [54-57].

[3] = ALP-driven mineralization of adhesive/dentin specimen with HABP1, RAMAN imaging with Divisive Clustering Analysis; format: biochemical, human; settings: for MNRp 960/1460: RAMAN peak ratio; for FMHW PO4^−3): RAMAN, after ALP-driven mineralization; for GMC 1078/960: carbonate to phosphate peak ratio; for Ca-P/collagen 960/1667: phosphate to amide I peak ratio
Description: as §3
Demineralized dentin samples, adhesive/dentin samples (pre/post mineralization), and SC collagen on glass were imaged using a LabRAM ARAMIS Raman microscope (HORIBA Jobin Yvon, Edison, NJ, USA), equipped with a HeNe laser (2=[…], laser power=17 mW). Light micrograph images were taken using a 50× long working distance objective Olympus lens. The samples spectra were evaluated over a wavelength range of 300 cm^−1 to 1800 cm^−1 with a 15 s spectra acquisition time of 4 acquisitions per cycle and processed using LabSPEC 6 software (HORIBA Jobin Yvon, Edison, NJ, USA). Divisive Clustering Analysis (DCA) was used to classify and group respective spectra. This multivariate analysis method was integrated into the LabSPEC 6 analysis software as a Multivariate Analysis (MVA) module (powered by Eigenvector Research Inc., HORIBA Jobin Yvon, NJ, USA). A rectangular area of the surface was imaged and submitted to this multivariate analysis where a statistical pattern determined derived independent clusters to present chemically distinct regions. Average spectra are calculated per cluster which were used to provide information on particular peak parameters and component distribution in the resulting spectra. These components were analyzed for relative degree of mineralization via mineral-to-matrix ratio (MMR), inferred from the ratio of peak intensities at 960 cm^−1 (phosphate) and 1460 cm^−1 (CH2 bending), crystallinity via full width at half maximum (FWHM) from the v1 phosphate band (960 cm^−1), and the carbonate content of mineral crystallites via gradient in mineral content (GMC), based on ratio of relative carbonate (10^70 cm^−1) and phosphate (960 cm^−1) peak heights. The calcium-phosphate (Ca/P) to collagen ratio was also assessed to understand the relative thickness of the mineral formed during mineralization. This would help in comparative evaluations between the samples.
Next evaluated was the use of HABP1 to potentially direct mineralization within the adhesive/demineralized dentin hybrid layer. To do this RAMAN Divisive Clustering Analysis (DCA) was used, a hierarchical k-means clustering method which is useful for identifying the internal structure of multi-layer datasets. We mapped the most distinctive mineral composition variations associated with the collagen matrix structural variations according to their RAMAN spectra. […] The DCA method measures similarity in three parameters: ratio of 960/1460 peak (e.g., mineral-to-matrix ratio), ratio of 1078/960 (gradient mineral carbonation, GMC: carbonate to phosphate) peak, and ratio of the 960/1667 peaks (phosphate to collagen with retained amide I structure, Ca/P collagen). The spectral feature at 1460 cm^−1 is assigned to the CH2 wag for collagen, and 1667 cm^−1 is the amide I peak for the collagen used. The 960 cm^−1 peak is the v1 phosphate stretching vibration associated with the mineral and 10^78 cm^−1 is the band for v1 carbonate. The method clusters the following groups: collagen only, mineral group I, and mineral group II. […]

[4] = target: T1, Type 1 rat tail collagen; test: PeakForce-QNM AFM modulus mapping of peptide-functionalized collagen pre/post ALP-driven mineralization; settings: peptide incorporated into collagen
Description: as §1, §3, §2
Building on the observed effects of the chimeric peptide on the collagen, next examined was if there was a change on the mechanical properties of the collagen due to the peptide presence. Quantitative modulus mapping was executed via PeakForce-QNM AFM to observe the changes in the elastic modulus distribution on the surfaces. The elastic modulus was previously established to be derived by using the Derjaguin-Muller-Toropov (DMT) model, and is thus reported as the DMT modulus. […]

[5] = target: T1, Type 1 rat tail collagen; test: MicroXCT imaging of mineral formed within peptide-incorporated collagen after ALP-driven mineralization; format: biochemical; settings: MicroXCT shaded surface display, 20-min ALP-driven mineralization
Description: as §1
ALP-driven mineralization was executed following the protocol discussed in Gungormus et al. (2008). The mineralization buffer prepared was composed of 24.4 Ca^2+ mM and 14.4 mM B-glycerophosphate made in 25 mM Tris-HCl buffer at pH 7.4, and 200 μL/well was added to a 24-well plate. […]
The microscale structure of the mineral formed within the peptide-incorporated collagen platform as a physical indicator of intrafibrillar mineralization, was observed using 3D X-ray microcomputed tomography (MicroXCT-400, Xradia Inc., Pleasanton, CA, USA). […] The 3D images were reconstructed using the XM Reconstructor 8.0 software and were analyzed from an orthogonal view using a TXM 3D Viewer under the […] surface display (SSD) mode (Xradia Inc., Pleasanton, CA, USA). […]

[6] = target: Collagen Type 1 solution from rat tail (3 mg/mL, C3867, Sigma-Aldrich) (rat, UniProt P02454 152-1207; P02466 86-1125); test: cell-based or functional assay
[7] = after 20 min ALP-driven mineralization

Chain of Collagen Type 1 solution from rat tail (3 mg/mL, C3867, Sigma-Aldrich) (P02454 152-1207 limits assumed, chain 1 of 2): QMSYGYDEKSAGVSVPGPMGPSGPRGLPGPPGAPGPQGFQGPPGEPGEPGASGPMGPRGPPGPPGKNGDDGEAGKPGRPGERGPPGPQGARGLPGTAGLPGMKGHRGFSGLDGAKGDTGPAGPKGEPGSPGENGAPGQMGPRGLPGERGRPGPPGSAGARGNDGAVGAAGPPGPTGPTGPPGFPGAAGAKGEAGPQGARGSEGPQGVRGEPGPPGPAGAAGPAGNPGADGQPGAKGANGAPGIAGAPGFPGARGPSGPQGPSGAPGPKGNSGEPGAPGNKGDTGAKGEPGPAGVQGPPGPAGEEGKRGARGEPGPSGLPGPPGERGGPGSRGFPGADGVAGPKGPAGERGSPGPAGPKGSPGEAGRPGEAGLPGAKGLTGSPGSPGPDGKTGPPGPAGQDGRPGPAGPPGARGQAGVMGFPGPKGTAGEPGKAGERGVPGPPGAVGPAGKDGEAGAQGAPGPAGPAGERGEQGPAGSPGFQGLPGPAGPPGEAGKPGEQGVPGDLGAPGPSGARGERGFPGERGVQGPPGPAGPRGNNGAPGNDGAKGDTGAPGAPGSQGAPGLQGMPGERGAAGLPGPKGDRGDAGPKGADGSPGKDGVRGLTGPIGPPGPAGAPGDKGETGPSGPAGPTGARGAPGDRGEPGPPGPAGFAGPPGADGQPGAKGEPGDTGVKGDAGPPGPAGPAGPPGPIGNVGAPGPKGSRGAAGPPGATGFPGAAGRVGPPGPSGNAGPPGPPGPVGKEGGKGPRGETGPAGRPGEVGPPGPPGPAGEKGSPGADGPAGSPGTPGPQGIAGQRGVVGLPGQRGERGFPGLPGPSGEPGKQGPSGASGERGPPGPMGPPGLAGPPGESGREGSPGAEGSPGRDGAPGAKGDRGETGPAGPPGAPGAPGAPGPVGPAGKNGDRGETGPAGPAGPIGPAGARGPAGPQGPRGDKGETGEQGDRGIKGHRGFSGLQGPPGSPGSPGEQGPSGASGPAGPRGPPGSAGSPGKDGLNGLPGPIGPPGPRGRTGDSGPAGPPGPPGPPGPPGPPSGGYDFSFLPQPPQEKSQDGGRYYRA
Chain of Collagen Type 1 solution from rat tail (3 mg/mL, C3867, Sigma-Aldrich) (P02466 86-1125 limits assumed, chain 2 of 2): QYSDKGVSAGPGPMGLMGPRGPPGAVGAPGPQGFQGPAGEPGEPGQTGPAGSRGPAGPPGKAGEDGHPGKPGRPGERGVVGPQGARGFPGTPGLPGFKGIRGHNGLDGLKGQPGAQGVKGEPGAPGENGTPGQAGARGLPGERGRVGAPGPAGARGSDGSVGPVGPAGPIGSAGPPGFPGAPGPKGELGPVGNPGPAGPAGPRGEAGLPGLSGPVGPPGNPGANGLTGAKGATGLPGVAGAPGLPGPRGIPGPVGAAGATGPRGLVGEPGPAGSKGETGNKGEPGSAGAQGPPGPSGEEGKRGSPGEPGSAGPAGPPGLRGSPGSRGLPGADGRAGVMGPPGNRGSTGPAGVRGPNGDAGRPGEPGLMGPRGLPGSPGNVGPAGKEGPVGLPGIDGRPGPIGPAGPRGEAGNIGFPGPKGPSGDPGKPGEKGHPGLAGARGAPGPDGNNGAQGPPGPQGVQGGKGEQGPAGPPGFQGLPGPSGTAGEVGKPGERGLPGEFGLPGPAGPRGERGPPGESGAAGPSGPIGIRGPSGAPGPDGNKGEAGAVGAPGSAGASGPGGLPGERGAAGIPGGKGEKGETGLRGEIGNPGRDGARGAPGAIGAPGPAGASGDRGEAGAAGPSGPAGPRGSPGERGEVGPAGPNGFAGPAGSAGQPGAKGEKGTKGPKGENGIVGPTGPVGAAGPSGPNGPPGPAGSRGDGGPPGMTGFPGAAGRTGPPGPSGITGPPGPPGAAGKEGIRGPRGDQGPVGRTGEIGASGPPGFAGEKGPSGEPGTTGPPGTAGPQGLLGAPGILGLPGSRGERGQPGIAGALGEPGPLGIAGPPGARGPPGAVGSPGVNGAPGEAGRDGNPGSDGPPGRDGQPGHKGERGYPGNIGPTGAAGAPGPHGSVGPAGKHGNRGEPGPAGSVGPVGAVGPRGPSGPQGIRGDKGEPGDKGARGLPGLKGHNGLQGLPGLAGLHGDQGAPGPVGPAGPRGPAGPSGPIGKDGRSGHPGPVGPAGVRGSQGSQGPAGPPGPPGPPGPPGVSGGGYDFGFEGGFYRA
T1 sequence (P02466 86-1125 limits assumed): as the sequence (P02466 86-1125 limits assumed, chain 2 of 2) above
T1 sequence (P02454 152-1207 limits assumed): as the sequence (P02454 152-1207 limits assumed, chain 1 of 2) above

| Molecule | Mean fibril width [1] | average Ca—P ratio [2] | DMT (elastic) modulus [4, 7] | DMT (elastic) modulus ([4]; pre-mineralization) | fibril width, Coefficient of variation, AFM topographical imaging [6] | fibril width, Standard Deviation, AFM topographical imaging [6] | mineral formation morphology on SEM images [2] | further results |
| --- | --- | --- | --- | --- | --- | --- | --- | --- |
| MLPHHGA [HABP1] | 129.9 nm and 129.90 nm | 1.41 |  |  |  |  | more extensively branched columnar mineral growth as well as plate-like mineral growth | MNRp 960/1460 ([3]; DCA class HABP1 Mineral II): 3.59; FMHW PO4^−3) ([3]; DCA class HABP1 Mineral II): 35.6; GMC 1078/960 ([3]; DCA class HABP1 Mineral II): 0.22; Ca-P/collagen 960/1667 ([3]; DCA class HABP1 Mineral II): 13.2; MNRp 960/1460 ([3]; DCA class HABP1 mineral I): 2.88; FMHW PO4^−3) ([3]; DCA class HABP1 mineral I): 39.6; GMC 1078/960 ([3]; DCA class HABP1 mineral I): 0.31; Ca-P/collagen 960/1667 ([3]; DCA class HABP1 mineral I): 23.9; mineralization shown with a RAMAN peak consistent with CaPO4 formation (960 cm^−1) ([3]; adhesive/dentin specimen, compared with mineralization procedure without peptide): mediates mineralization |
| TKKLTLRT [CBP] | 121.4 nm and 121.40 nm | 1.30 | 6.52 GPa | 5.16 GPa |  |  | branched columnar mineral growth |  |
| TKKLTLRTAPAMLPHHGA [CBP-HABP1] | 82.37 nm | 1.25 | 5.83 GPa | 5.25 GPa |  |  | more extensively branched columnar mineral growth as well as plate-like mineral growth | void areas in collagen interior [5]: almost no void areas; density of mineralized collagen layer ([5]; versus collagen control): denser formation compared to ALP-based mineralized collagen samples |
| TKKLTLRTAPAMLPHHGA [bifunctional peptide TKKLTLRT-APA-MLPHHGA (CBP-HABP1)] |  |  |  |  | 32.1 | 26.5 nm |  |  |

Now from value to molecule, other results behind:

| Mean fibril width [1] | average Ca—P ratio [2] | DMT (elastic) modulus [4, 7] | DMT (elastic) modulus ([4]; pre-mineralization) | fibril width, Coefficient of variation, AFM topographical imaging [6] | fibril width, Standard Deviation, AFM topographical imaging [6] | Molecule | mineral formation morphology on SEM images [2] | further results |
| --- | --- | --- | --- | --- | --- | --- | --- | --- |
|  |  |  |  | 17 | 20.7 nm | TKKLTLRT-OH [collagenase-collagen-binding peptide (CBP), TKKLTLRT] |  |  |
|  |  |  |  | 67.5 | 87.6 nm | MLPHHGA-OH [hydroxyapatite-binding peptide (HABP1), MLPHHGA] |  |  |
